Laboratory results taken from JP2014141434A (dated 2014).

T1: ヒトROBO2 (human)
T1 construct: also called hROBO2; pCI−hROBO2
T1 chain: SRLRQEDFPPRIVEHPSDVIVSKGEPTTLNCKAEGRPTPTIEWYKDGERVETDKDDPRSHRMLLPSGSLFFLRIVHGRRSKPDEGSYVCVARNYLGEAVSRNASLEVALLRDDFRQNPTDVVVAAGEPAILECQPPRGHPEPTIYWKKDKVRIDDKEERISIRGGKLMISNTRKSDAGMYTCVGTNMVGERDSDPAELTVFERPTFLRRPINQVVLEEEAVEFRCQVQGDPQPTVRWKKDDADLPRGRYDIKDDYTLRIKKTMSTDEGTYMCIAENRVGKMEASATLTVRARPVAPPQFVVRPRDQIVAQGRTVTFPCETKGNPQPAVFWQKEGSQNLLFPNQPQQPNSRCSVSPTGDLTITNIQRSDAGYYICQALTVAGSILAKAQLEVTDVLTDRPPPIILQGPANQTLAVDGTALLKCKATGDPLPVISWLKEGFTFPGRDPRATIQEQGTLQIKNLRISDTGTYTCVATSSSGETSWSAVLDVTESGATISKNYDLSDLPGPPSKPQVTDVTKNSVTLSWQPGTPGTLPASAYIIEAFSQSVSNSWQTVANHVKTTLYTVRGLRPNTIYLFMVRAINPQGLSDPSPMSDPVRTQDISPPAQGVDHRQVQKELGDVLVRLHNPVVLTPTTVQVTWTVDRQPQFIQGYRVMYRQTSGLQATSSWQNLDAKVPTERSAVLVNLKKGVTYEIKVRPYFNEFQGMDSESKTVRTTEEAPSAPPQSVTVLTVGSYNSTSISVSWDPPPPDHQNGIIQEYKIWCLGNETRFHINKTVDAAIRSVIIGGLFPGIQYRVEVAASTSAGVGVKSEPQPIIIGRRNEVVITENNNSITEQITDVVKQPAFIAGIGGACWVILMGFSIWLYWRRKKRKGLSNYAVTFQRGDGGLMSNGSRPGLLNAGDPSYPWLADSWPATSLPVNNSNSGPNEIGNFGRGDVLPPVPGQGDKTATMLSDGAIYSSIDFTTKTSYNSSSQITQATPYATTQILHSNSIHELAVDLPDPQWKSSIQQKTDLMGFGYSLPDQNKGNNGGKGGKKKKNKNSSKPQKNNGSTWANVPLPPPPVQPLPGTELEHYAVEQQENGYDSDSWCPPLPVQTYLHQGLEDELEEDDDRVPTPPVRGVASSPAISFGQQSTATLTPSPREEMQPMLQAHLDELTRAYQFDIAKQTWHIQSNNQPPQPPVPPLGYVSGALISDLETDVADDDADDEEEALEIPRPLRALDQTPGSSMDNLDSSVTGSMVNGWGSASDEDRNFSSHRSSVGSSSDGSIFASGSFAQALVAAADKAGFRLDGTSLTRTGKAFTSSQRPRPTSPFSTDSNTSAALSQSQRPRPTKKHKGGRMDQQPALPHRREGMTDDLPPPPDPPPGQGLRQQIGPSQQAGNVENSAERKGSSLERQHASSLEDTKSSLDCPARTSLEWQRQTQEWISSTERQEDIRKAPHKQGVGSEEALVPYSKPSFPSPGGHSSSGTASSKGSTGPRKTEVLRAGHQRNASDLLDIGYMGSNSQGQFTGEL

T2: rROBO4−ECD (ヒトROBO4細胞外領域ポリペプチド) (human, UniProt Q8WZ75 28-461)
T2 construct: It was cloned in pEF6/V5-His-TOPO; also called ヒトROBO4−ECD; rROBO4-ECD
T2 sequence: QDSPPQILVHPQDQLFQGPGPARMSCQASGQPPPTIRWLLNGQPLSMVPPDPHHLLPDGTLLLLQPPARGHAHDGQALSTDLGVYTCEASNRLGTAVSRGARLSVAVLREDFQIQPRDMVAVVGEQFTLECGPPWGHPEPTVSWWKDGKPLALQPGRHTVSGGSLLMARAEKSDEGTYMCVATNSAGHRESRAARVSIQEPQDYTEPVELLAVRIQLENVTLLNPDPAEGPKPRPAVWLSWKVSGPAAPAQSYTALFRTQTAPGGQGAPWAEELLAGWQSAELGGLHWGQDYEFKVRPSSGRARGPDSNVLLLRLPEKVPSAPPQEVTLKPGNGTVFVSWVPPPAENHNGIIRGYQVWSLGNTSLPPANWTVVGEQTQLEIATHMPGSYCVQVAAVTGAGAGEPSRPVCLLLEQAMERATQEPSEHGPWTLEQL

T3: N末端FLAG−tag付加型カニクイザルROBO4 cynoROBO4−1 (cynomolgus monkey, UniProt Q8WZ75 28-1007 (human entry))
T3 construct: also called pCI−FLAG−cynoROBO4−1
T3 chain: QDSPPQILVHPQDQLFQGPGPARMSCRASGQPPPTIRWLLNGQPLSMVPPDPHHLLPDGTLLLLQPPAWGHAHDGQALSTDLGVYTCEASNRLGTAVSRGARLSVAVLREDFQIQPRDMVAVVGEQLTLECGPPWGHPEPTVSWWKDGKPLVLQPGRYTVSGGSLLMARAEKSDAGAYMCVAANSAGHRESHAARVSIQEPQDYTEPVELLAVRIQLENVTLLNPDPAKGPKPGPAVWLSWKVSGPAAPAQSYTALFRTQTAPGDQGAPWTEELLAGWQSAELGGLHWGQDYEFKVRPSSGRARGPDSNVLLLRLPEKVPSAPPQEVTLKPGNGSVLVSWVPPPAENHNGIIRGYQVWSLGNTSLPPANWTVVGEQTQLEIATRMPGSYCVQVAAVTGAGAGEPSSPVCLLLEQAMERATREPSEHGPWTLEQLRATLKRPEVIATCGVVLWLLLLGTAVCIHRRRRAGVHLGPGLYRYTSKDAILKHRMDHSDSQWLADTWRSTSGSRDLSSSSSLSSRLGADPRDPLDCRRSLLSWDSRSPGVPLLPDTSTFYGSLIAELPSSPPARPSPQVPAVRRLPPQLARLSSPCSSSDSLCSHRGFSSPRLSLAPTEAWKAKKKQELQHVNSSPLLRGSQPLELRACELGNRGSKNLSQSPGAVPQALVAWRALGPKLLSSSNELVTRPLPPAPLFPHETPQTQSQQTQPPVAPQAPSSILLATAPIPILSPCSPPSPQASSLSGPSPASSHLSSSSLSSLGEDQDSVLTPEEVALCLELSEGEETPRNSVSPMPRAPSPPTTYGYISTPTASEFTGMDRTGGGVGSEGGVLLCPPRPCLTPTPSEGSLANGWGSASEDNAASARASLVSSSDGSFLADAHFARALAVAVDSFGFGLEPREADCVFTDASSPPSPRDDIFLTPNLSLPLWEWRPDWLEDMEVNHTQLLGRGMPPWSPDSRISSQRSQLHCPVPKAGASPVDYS


How the values were obtained:
ヒトROBO2 = target: T1, ヒトROBO2; test: flow cytometry, transfected HEK293 cells
[1] = target: T2, rROBO4−ECD (ヒトROBO4細胞外領域ポリペプチド); test: SPR, Biacore 3000; antibody captured by anti-human IgG on CM5 chip, rROBO4-ECD (0.1-200 nM) as analyte, 1:1 model
[2] = target: T3, N末端FLAG−tag付加型カニクイザルROBO4 cynoROBO4−1; test: flow cytometry, transfected HEK293 cells

| Binder | binding result (ヒトROBO2) | Kd [1] [nM] | binding result [2] |
| --- | --- | --- | --- |
| 抗ROBO4マウスモノクローナル抗体 MAb1 (antibody, V domains shown, Mouse IgG1 (gamma 1) / kappa from a hybridoma; The constant regions are not in the listing; also called MAb1) VH: EVQLVESGGGLVKPGGSLKLSCAASGFTFSTYAMSWVRQTPEKRLEWVATISNGGTYTYYPDSVKGRFTISRDNAENTLYLQMSSLRSEDTAMYFCARLIYYDYLDYWGHGTTLTVSS VL: DAVMTQTPLSLPVSLGDQASISCRSSQSLENSNGNTYLNWYFQKPGQSPQLLIYRVSNRFSGVLDRFSGSGSGTDFTLKISRVEAEDFGVYFCLQVTHVPWTFGGGTKLEIKR | no binding (tested: 10 μg/mL) |  |  |
| ヒト化MAb1抗体 H−2143 (antibody, human IgG2, kappa, V domains shown, Humanised IgG2 / kappa; also called H-2143; hMAb1-H4 / hMAb1-L2) VH: EVQLVESGGGLVQPGGSLRLSCAASGFTFSTYAMSWVRQAPGKRLEWVATISQGGTYTYYPDSVKGRFTISRDNAKNTLYLQMNSLRAEDTAVYYCARLIYYDYLDYWGQGTLVTVSS VL: DIVMTQSPLSLPVTLGEPASISCRSSQSLENENKNLYLNWYLQKPGQSPQLLIYRVSNRFSGVPDRFSGSGSGTDFTLKISRVEAEDVGVYYCLQVTHVPWTFGPGTKVDIKR | no binding (tested: 10 μg/mL (method of 4)-4-2)) | 1.7 | binds |
| ヒト化MAb1抗体 H−1143 (antibody, human IgG2, kappa, V domains shown, Humanised IgG2 / kappa; also called H-1143; hMAb1-H2 / hMAb1-L2) VH: EVQLVESGGGLVQPGGSLRLSCAASGFTFSTYAMSWVRQAPGKGLEWVATISQGGTYTYYPDSVKGRFTISRDNAKNTLYLQMNSLRAEDTAVYYCARLIYYDYLDYWGQGTLVTVSS VL: DIVMTQSPLSLPVTLGEPASISCRSSQSLENENKNLYLNWYLQKPGQSPQLLIYRVSNRFSGVPDRFSGSGSGTDFTLKISRVEAEDVGVYYCLQVTHVPWTFGPGTKVDIKR | no binding (tested: 10 μg/mL (method of 4)-4-2)) | 3.5 | binds |
| ヒト化MAb1抗体 H−2140 (antibody, human IgG2, kappa, V domains shown, Humanised IgG2 / kappa; also called H-2140; hMAb1-H4 / hMAb1-L1) VH: EVQLVESGGGLVQPGGSLRLSCAASGFTFSTYAMSWVRQAPGKRLEWVATISQGGTYTYYPDSVKGRFTISRDNAKNTLYLQMNSLRAEDTAVYYCARLIYYDYLDYWGQGTLVTVSS VL: DIVMTQSPLSLPVTLGEPASISCRSSQSLENSNGNTYLNWYLQKPGQSPQLLIYRVSNRFSGVPDRFSGSGSGTDFTLKISRVEAEDVGVYYCLQVTHVPWTFGPGTKVDIKR | no binding (tested: 10 μg/mL (method of 4)-4-2)) | 1.8 | binds |
